This note sets out measurements from patent US20230039694A1, “H[…] REDUCTASE AND USES THEREOF” (Southwest University, priority 2019, published 2023).

The nature of experiment [1]: Verification on enzyme activity of HAR: hyoscyamine aldehyde reduction reaction, product identified by high-resolution mass spectrometry. The class given is biochemical, Atropa belladonna. As to conditions: phosphate buffer pH 6.4, 0.2 mM NADPH-4Na, 1 mM hyoscyamine aldehyde, 30 μg HAR protein, 1 h at 37.5° C. How it is done:
The constructed pET28a-HAR plasmid was converted to a prokaryotic expression stain BL21, and a positive clone was screened with PCR to obtain prokaryotic expression engineering bacteria BL21-pET28a-HAR. 100 μL of BL21-pET28a-HAR bacterial liquid was inoculated to a 30 mL of LB liquid medium containing 100 mg/L kanamycin for overnight culture at 37° C. and 200 rpm. Then, a product was respectively inoculated to 400 mL of LB liquid medium according to a ratio of 1 to 50 for activated culture at 37° C. and 200 rpm, and when OD600 was about 0.6, IPTG was added until a final concentration reached 1 mM. Culture was continued for 6 h at 37° C. and 200 rpm. The harvested bacterial liquid was subjected to centrifugation at 8000 rpm, and a supernatant was removed. Then precipitate bacteria were resuspended with a phosphate buffer, subjected to ultrasonication and then purified with a Ni-NTA filler from GE Company to obtain an HAR protein.
A hyoscyamine aldehyde reduction reaction system catalyzed by the HAR was as follows: a phosphate buffer (pH 6.4), 0.2 mM NADPH-4Na, 1 mM hyoscyamine aldehyde and 30 μg of HAR protein were incubated for 1 h at 37.5° C., and a reaction product was identified using a high-resolution mass spectrometer. […]

Experiment [2] has as its system Atropa belladonna hairy roots. In words: Content of hyoscyamine in transgenic Atropa belladonna hairy roots with HAR over-expression (HPLC). It is filed as cell-based. From the text: In order to study the effect of an HAR gene on tropane alkaloids in Atropa belladonna, a pericycle-specific high-expression vector PMT promoter::HAR was constructed, and an original plasmid was pBI121. Firstly, a 35S promoter on the original plasmid pBI121 was substituted with an AbPMT promoter by using digestion sites HindIII and Xba I; and the AbPMT promoter was subjected to PCR amplification with Atropa belladonna cDNA as a template and sequences as shown in SEQ ID NO. 7 and SEQ ID NO. 8 as primers. Then a GUS gene on the original plasmid was substituted with the HAR gene by using digestion sites BamHI and SacI; and the HAR gene was subjected to PCR amplification with Atropa belladonna cDNA as a template and sequences as shown in SEQ ID NO. 9 and SEQ ID NO. 10 as primers to obtain an HAR plant over-expression vector PMT promoter:: HAR. The primer sequences used were as follows: […]
The hairy roots were harvested after being subjected to shaking culture for 30 d in an MS liquid medium, and a material was freeze-dried to a constant weight in a freeze dryer. […] The alkaloids were dissolved with 1 mL of liquid chromatography grade methanol; the solution was filtered with a filter membrane of 0.22 μm; the content of the alkaloids was determined with HPLC; and a result was an average of three repeated experiments, where an error bar indicated a standard deviation. […]

B1: HAR: Hyoscyamine aldehyde reductase from Atropa belladonna, amino acid sequence SEQ ID NO. 4, encoded by SEQ ID NO. 3 (protein, listed as Atropa belladonna)
chain: MDSSGVLSPFTFSRRATGEEDVRLKVLYCGICHSDLGCIKNEWGWCSYPLVPGHEIVGIATEVGSKVTKFKVGDRVGVGCMVGSCGTCQNCTQNQESYCPEVIMTCASAYPDGTPTYGGFSNQMVANEKFVIRIPNSLPLDAAAPLLCAGSTVYSAMKFYGLCSQGLHLGVVGLGGLGHVAVKFAKAFGMKVTVISTSLGKKEEAINQLGADSFLINTDTEQMQGAMEVMDGIIDTVSALHPIEPLLGLLKSHQGKLIIVGLPNKQPELPVFSLINGRKMIGGSAVGGVKETQEMIDFAAEHNITADIEIVPMDYVNTAMERLEKGDVKFRFVIDVENTLVAAQT
For B1, the “product of the hyoscyamine aldehyde reduction reaction catalyzed by the HAR” value in experiment [1] is “a product of the hyoscyamine aldehyde reduction reaction catalyzed by the HAR was hyoscyamine”. Further, the “content of hyoscyamine relative to non-transgenic Atropa belladonna hairy roots” value in experiment [2] (AbHAR over-expression hairy roots versus non-transgenic hairy roots, same period) is listed as 1.83-2.58 times. For the same molecule, the “average content of hyoscyamine in hairy roots” value in experiment [2] (AbHAR over-expression hairy roots, 30 d shaking culture in MS liquid medium, ordinary hairy roots 2.32 mg/g DW) is 4.24-5.98 mg/g DW.
